In the DeepSol protein solubility set:

assay: soluble on expression in E. coli; label from the status in PepcDB or PDB records

| Sequence | soluble on expression in E. coli |
| --- | --- |
| MGSDKIHHHHHHMETLELQGAKLRYHQVGQGPVLIFIPGANGTGNIFLPLAEQLKDHFTVVAVDRRDYGESELTEPLPDSASNPDSDYRVKRDAQDIAELAKSLSDEPVYILGSSSGSIVAMHVLKDYPEVVKKIAFHEPPINTFLPDSTYWKDKNDDIVHQILTEGLEKGMKTFGETLNIAPIDAKMMSQPADTEEGRIEQYKRTMFWSEFEIRQYTHSDITLDDFTKYSDKITLLNGTDSRGSFPQDVNFYINKETGIPIVDIPGGHLGYIQKPEGFADVLLNMWG | not soluble |
| MGSDKIHHHHHHMETLISGKNLKAYYVLDLWGSKKVVKAVDNVSLDILPNEIYGIAGESGCGKSTLLKALLALLDPPLRLMDGELLYNIEGRPTNVTLLKSETIRKLRWSFISYIPQGSMHVLNPVKRVRDTFIEILSSHVKKQTKEFLDLAVQHLKDLGLPERVLNMFPHQLSGGMRQRVTIALATVLKPRVIFADEPTTALDVVAQRAVMQLIRKIQNDLKNTVVLVTHDMGVHAQITTRMAIMYAGKIVEEGPTLEIFKNPLHPYTRYLIQSLPAIGDKKLRSGIPGSPPSLVAPPPGCRFHPRCPHASQRCREEEPLLKEIKPGHKVACFLMEG | not soluble |
| MGSDKIHHHHHHMFAITGITGQVGGVVARALLAAGKDVRAVVRSAAKGAQWKEQGCEIAVAEMSDTQALSGAFSGVDGVFILLPPNFDPSPDFAESRHLVGTLRDALKQANPPKVVCLSTIGAQAAQPNLLQQLGYMEQQLGSLPMPIAFLRAGWFIENAAWDVEPARTAGVIPSFLQPLDKPVPMVATADVGRVAASMLQQAWTGKRIVELEGPRRITPNDLANTFARLLGKDVRMETVPRDTWEALFKSQGMKNPVPRMQMLDGFNEGWIEFETPDQTIKGNVTLETVLQSLIERVG | not soluble |
| MGSDKIHHHHHHMFEVFNYEDIICARGNREMPWKPSFQMNVYYYLIDGLLIDSGPYSLAKEAIEFFNAHIIEQVFLSHIHEDHAGMAYWLQEKMQIPIYLHEGSLEEARREPELAKYRLGIWGRRKAFNAEPINDTIKTGSYVFDVIDSPGHCPYHKVLHEKTKGWLFSGDLLNNLKPKSVMFDENTNDTILSIRKVLDLDFTTVFCAHTGIRKNAKNLFLKKLNYLLELQKDTQVLRNRGFSNTEIVEQLFPGPDPISSLSGGEFSSYYLVSTL | not soluble |
| MGSDKIHHHHHHMFGYVKINKMDLTFREYDYYKAYYCGLCKYLKRNHGEISRFSLNYDITFLIVLLTAVYNPESISTEEVCIVNPFKKKKVITNDITEYAASMNILLTYYKLEDNLMDDKRIKDKLAYYIYKNKLKLAYEKYPEKAEYIKQQLNELNKLEKDKNINIDEVSSIFGNIMGEVFVYKKDENERNLRMIGFNIGKYIYLLDAYEDLDEDFKKGRYNPFIEYIDKNDELKEKVKKIIVTSLGFLARGIDNLNLNKNVGIIENIIYSGVYLRYINILESRGGKNVQ | not soluble |
| MGSDKIHHHHHHMFKESPIIRRVSRQIMVGNVPVGGDAPITVQSMTNTLTTDVAATVAQIKALEAVGADIVRVSVPTMDAAEAFREIKKQVNVPLVADIHFDYRIALKVAEYGVDCLRINPGNIGNENRIRSVVECARDNNIPIRIGVNGGSLEKDIQEKYTEPTPEALLESAMRHVDILDRLNFNEFKVSVKASDVFLAVESYKLLAKQIDNPLHLGITEAGGLRSGSVKSSVGLGLLLAQGIGDTIRISLAADPIEEIKVGFDILKSLKLRSRGINLIACPSCSRQEFDVVSTVNALEQRIEDIMTPMDVSIIGCIVNGPGEAMVSDLGLTGSSKKSGYYLDGIRQKERFDNTDLVDQLEQRIRAKARSMSERLDEKNKIDILTKD | not soluble |
| MGSDKIHHHHHHMFKTAVGHSNDPDSLSAIEEVLQQCVSSLGGDIPKAGILFSAIDFEHALILQQIHQFFPGIELIGGTTDGEISSVLEFQQDSITLMLFCSDEVEINAGVGRKVSVDPIAVTKQAVEQAKAKTTETPRLCLTHPESLTISGVSILHGLKLALGQNVPIFGGLAGDQSRYQNTYQFFQTEVLSDSVPILLFSGTILFSHGVASGWHPIGQISQVTKVDKNILYEIDGKPALDFYHHYLGLLPPSMEYPLAVFDQNRDNFYIRAPIAYNQDSGSITFFADIPDRAVIQIAEACYEDILAASKASFMNALNNYPGAEPSAVLFFSCVARRQILGTRAKEEYQNTKLCLTYHLPGCGFYSYGEIAPIDGMSQTQFHNETFVTLILGTR | not soluble |
| MGSDKIHHHHHHMFLMVIINPTDGMSAMSAPLDTDQLQTFIAIVDTGSFTKAAGRVFKTQSAVSMQMRRLEERIGKQLFIKDGRGNRLTAEGEKLLNYARRIVRLNSEAIAAFDDNRLEGTLRIGTPDDYADRYMPEIIGRFAKTHPNVELYIVCEPSSDLAEKMARGELDIALVTHNPATRQSDVMRTEPLCWVASANHPLRDDAPVPLAVGRRDCNWRQLACSALDADGRDYQILFTSWSSTVVAAAVLAGLAVSVLPESALRTGMKVLGQLDGFPPLPPVQIGIMKRPGMSPSLMNAITDHIAACLDNINPTAIEDDMDGETKTYSRYYPRLRAGHMIPGW | not soluble |
| MGSDKIHHHHHHMFLSIGTLPEDSRFHDAMVYFDMAHLSGTDRSQMLLLPEVVDDYVGPDNPVRFIEAFIDGLDLQASGFIRVEPKLTSRPGYDPADLLKLYLYGYLNRVRSSRRLEAETHRNIEVIWLLRRLTPDHKTIANFRRVNHAAFRQVFREFVILCRQLDLFGRELLAVDGTRIKAVNNKERNFTRAALTKFIREADERLTEYMKRLDNGDAQEENTGGGGPRAKNLAEKITAIKGKRDRHKALLDELDRTGEDQISLTDMDSRAMARMTKVGVGYNIQLAVDVKHKLIAEQEVSNQVVDMGLLTQATQAAMDNLGVEQIEVVADRGYFKVEDIEACEKAGITAYVPKPLRGAAVREGFFSKDEFRYNAEKDVYVCPAGEHLSPRYEKKTRDLKLVEYCNREACRSCDLKAHCTHGYRRVGRVENEAVLDRMAARLAARPEVLDQRRETVEHPFGTIKQWMYQGSFLMRRLENVQGEFSLTALAYNIRRAITLVGVAGLIGAVRA | not soluble |
| MGSDKIHHHHHHMFSMTKDWREQRILDSSEFTHADWLQAAQRIVILGRLNEDELTRLFELATLFLADKSITGAQGFEITDAVKQSIALQACLPILNLSLEWYAGWSAIIIYPGSYKSETTTVDELGIVHEGSQHRSGEAWLRGPVILSWKDAKHSGERDGHNVVIHEFVHKLDMLNGRANGFPPLQPDMDPVRWTEIMTRDFEDFQSHHKSGFDRYGATNPAEFFAVLSEVFFETPQKLIDAYPDIYEIMVKFFRQTPLEPRP | not soluble |
| MGSDKIHHHHHHMFSYEKVQTLNQLELFVYKYVTSHLEECKTMTIRDLSTQSHVSSTTILRFLKKMGFEGFSDFKYVLRHRNDRTPASELSQDLGPIGQFLKQTATTEYTEKMEEVARVVAQSNTRLFFGMGSSGSMAQYGARILSNYGMLTLAITDPFQPQPISERDYSKTLIILLSVSGETEGVLTQANYYRQNGAKIVAITANSTSTLAQIADYSLTYDIPENKVGSLNFTSQIPVVYLLEQLGEKTSKLVYHPEISHEI | not soluble |
| MGSDKIHHHHHHMFTQVYEEIRQLTISKVLDFYDHEVRRLDEAARQTKYQKMSASPFLFFRGSSHLFYYDVTRIPLGFDTPPETPTWIQGDLHFENFGVHGNAKGEIIYDVNDFDEGYLGSYLYDLIRMAVSVQLFAEEAGYDAKPAIAAYVQHYLDDLRQYAKGKNPSKVCFTTDNTKGPIRKLIKKAEKKKAELLGERTTVVDGQRRFADLPDMKRLDSSAYTAIEAVWPEYIASIDAEDRQEDGFYAIKDIVYKLDSGTASIGLERYYILVEGTGGEHEDLILEMKQAQSSVPSLFVPAYLQEVETVHQGRRIVTSQKAMQAHEDPYLGYVTMHGKEYYVRERSPYKKKLKAKHIKSQDDLENVLSIQGQITAKIHARADMDAGVDVDILHHHADVVIIESIGVSDAEFIRQIQRWSSAYAARTTLDFQVFLSWLANR | not soluble |
| MGSDKIHHHHHHMFVNRKEELEFLERKWREEGAQLIIIYGRRRIGKTMLLKEFLKGKRGIYFLATADSMAENIRGLAEKFTKLTRREYFMEVRDFRRLFRYLAEEMGKERVAVVLDEFQYLISLDPGILSVLQKIWDEYLKDTGIFLILCGSSIGMMERTLEYKSPLYGRRTGAWKVKPFDIRGIAEMFPERSMEELVKIYAVFGGVPFYLDLIRNLSVENAIKERILKKGEILYEEPEFLLREELREPRVYKLILKGLALGYESLGELINFTGLDRGNLSKYLDTLERLELVGYELPYGKRKRGQYYIRDNFFNFWFRFVYPNLADLELGLVNEVWERISGEINAYYGKMFERLVREMLRLRILDFGQKGVSRWWHRGEEIDAIAELKDKLLFVEVKWKDLNRREARKILKDLKRKSERFEGEKEFLLIAKRIEDKEEGMLDLEDLEKVIRNL | not soluble |
